# B1: Dolichol phosphate-mannose biosynthesis regulatory protein (Rattus norvegicus (Rat)), Q9Z325 (parent)
# chain: MATGTDQAVGFGLVAVSLIIFTYYTTWVILLPFIDSQHVIHKYFLPRAYAVLLPLAAGLLLLLFVGLFITYVLLKSQKVTKKAQ
# partner: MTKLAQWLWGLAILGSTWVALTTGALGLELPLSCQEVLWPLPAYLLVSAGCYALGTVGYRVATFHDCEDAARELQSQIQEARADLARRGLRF
# Variants of: B1
# Details: with dpm3_human DPM3, Q9P2X0
row,effect of a mutation on the interaction,Variant
1,decreasing interaction,MATGTDQAVGFGLVAVSLIILTSYTTWVILLPFIDSQHVIHKYFLPRAYAVLLPLAAGLLLLLFVGLFITYVLLKSQKVTKKAQ [F21L;Y23S]

# From IntAct's records for PubMed 10835346
